What was measured:
Assay in all cases: IEDB peptide-MHC binding, purified MHC/direct/fluorescence; filed as Kd, often an IC50 or EC50 that approximates it; ≥ and ≤ were set here for values at or beyond the usual limits of such assays
HLA-B*07:02 = biological target: HLA-B*07:02
HLA-B*58:01 = biological target: HLA-B*58:01
HLA-B*40:01 = biological target: HLA-B*40:01
HLA-A*01:01 = biological target: HLA-A*01:01
HLA-B*46:01 = conditions: source organism: Influenza A virus (A/duck/Mongolia/47/2001(H7N1))
HLA-A*69:01 = biological target: HLA-A*69:01
HLA-A*24:02 = biological target: HLA-A*24:02
HLA-B*15:09 = biological target: HLA-B*15:09
HLA-A*02:01 = biological target: HLA-A*02:01
HLA-B*08:01 = biological target: HLA-B*08:01
HLA-B*27:05 = biological target: HLA-B*27:05
HLA-A*03:01 = biological target: HLA-A*03:01
HLA-A*31:01 = biological target: HLA-A*31:01
HLA-A*26:01 = biological target: HLA-A*26:01
HLA-B*15:01 = biological target: HLA-B*15:01
HLA-A*11:01 = biological target: HLA-A*11:01
HLA-A*30:01 = conditions: source organism: Vibrio parahaemolyticus
HLA-B*44:02 = biological target: HLA-B*44:02
HLA-B*73:01 = conditions: source organism: Vibrio parahaemolyticus AQ3810
HLA-B*08:02 = biological target: HLA-B*08:02
HLA-C*05:01 = biological target: HLA-C*05:01
[1] = source organism: Influenza A virus (A/duck/Mongolia/47/2001(H7N1))
[2] = source organism: Influenza A virus(A/swine/Henan/3/2004(H9N2))
[3] = source organism: Vibrio parahaemolyticus
[4] = source organism: Salmonella enterica subsp. enterica serovar Typhimurium
[5] = source organism: Salmonella enterica subsp. enterica serovar Typhimurium str. LT2
[6] = source organism: Giardia lamblia ATCC 50803

With NESGRLIDF the Kd (HLA-B*07:02; [1]) was no less than 20 µM, the Kd (HLA-B*58:01; [1]) was no less than 20 µM and the Kd (HLA-B*40:01; source organism: Influenza A virus (A/Puerto Rico/8/34/Mount Sinai(H1N1))) was no less than 5 µM. It also gave a Kd (HLA-A*01:01; [1]) of no less than 20 µM, a Kd (HLA-B*46:01) of no less than 20 µM and a Kd (HLA-A*69:01; [1]) of no less than 20 µM. It also gave a Kd (HLA-A*24:02; [1]) of no less than 20 µM, a Kd (HLA-B*15:09; [2]) of no less than 20 µM and a Kd (HLA-A*02:01; [1]) of no less than 20 µM. For the same sequence, the Kd (HLA-B*08:01; [1]) was no less than 20 µM, the Kd (HLA-B*27:05; [1]) was no less than 20 µM and the Kd (HLA-A*03:01; [1]) was no less than 20 µM. It also gave a Kd (HLA-A*31:01; [1]) of no less than 20 µM, a Kd (HLA-A*26:01; [2]) of no less than 20 µM and a Kd (HLA-B*15:01; [1]) of no less than 20 µM. The Kd (HLA-A*11:01; [1]) was no less than 20 µM.
Work on GRNSRFPDK yielded a Kd (HLA-B*07:02; [3]) of no less than 20 µM, a Kd (HLA-B*58:01; [3]) of no less than 20 µM and a Kd (HLA-B*40:01; [3]) of no less than 20 µM. It also gave a Kd (HLA-A*01:01; [3]) of no less than 20 µM, a Kd (HLA-A*30:01) of no less than 5 µM and a Kd (HLA-A*69:01; [3]) of no less than 20 µM. For the same sequence, the Kd (HLA-B*44:02; [3]) was no less than 20 µM, the Kd (HLA-A*02:01; [3]) was no less than 20 µM and the Kd (HLA-B*08:01; [3]) was no less than 20 µM. It also gave a Kd (HLA-B*27:05; [3]) of 1.04 µM, a Kd (HLA-A*03:01; [3]) of no less than 20 µM and a Kd (HLA-A*31:01; [3]) of no less than 20 µM. The Kd (HLA-A*26:01; [3]) was no less than 20 µM, the Kd (HLA-B*15:01; [3]) was no less than 20 µM and the Kd (HLA-B*73:01) was no less than 20 µM.
With YSDIFNNVL the Kd (HLA-B*07:02; [4]) was no less than 20 µM, the Kd (HLA-B*58:01; [4]) was no less than 20 µM and the Kd (HLA-B*40:01; [4]) was 0.396 µM. For the same sequence, the Kd (HLA-B*08:02; [5]) was no less than 20 µM, the Kd (HLA-A*01:01; [4]) was 0.075 µM and the Kd (HLA-A*24:02; [4]) was no less than 20 µM. For the same sequence, the Kd (HLA-B*44:02; [4]) was no less than 20 µM, the Kd (HLA-B*08:01; [5]) was no less than 20 µM and the Kd (HLA-B*27:05; [4]) was no less than 20 µM. For the same sequence, the Kd (HLA-C*05:01; [5]) was 0.005 µM, the Kd (HLA-A*03:01; [4]) was no less than 20 µM and the Kd (HLA-A*31:01; [4]) was no less than 20 µM. The Kd (HLA-A*26:01; [5]) was no less than 20 µM, the Kd (HLA-B*15:01; [4]) was no less than 20 µM and the Kd (HLA-A*11:01; [4]) was no less than 20 µM.
Work on SLDQSVVEL yielded a Kd (HLA-C*05:01; source organism: Chlamydia trachomatis) of 0.051 µM.
Work on DEKPKVMEG yielded a Kd (HLA-B*07:02; [6]) of no less than 20 µM, a Kd (HLA-B*58:01; [6]) of no less than 20 µM and a Kd (HLA-B*40:01; [6]) of no less than 20 µM. The Kd (HLA-B*08:02; [6]) was no less than 20 µM, the Kd (HLA-A*01:01; [6]) was no less than 20 µM and the Kd (HLA-A*69:01; [6]) was no less than 20 µM. The Kd (HLA-A*24:02; [6]) was no less than 20 µM, the Kd (HLA-B*15:09; [6]) was no less than 20 µM and the Kd (HLA-B*44:02; [6]) was no less than 20 µM. It also gave a Kd (HLA-A*02:01; [6]) of no less than 20 µM, a Kd (HLA-B*27:05; [6]) of no less than 20 µM and a Kd (HLA-A*03:01; [6]) of no less than 20 µM. For the same sequence, the Kd (HLA-A*31:01; [6]) was no less than 20 µM, the Kd (HLA-B*15:01; [6]) was no less than 20 µM and the Kd (HLA-A*11:01; [6]) was no less than 20 µM.

Reference: the Immune Epitope Database (IEDB)
